Assay results from paper PMC314469, “Protein Interaction Networks by Proteome Peptide Scanning” (PLoS Biology, 2004).

T1: Boi1 SH3 (BOI1_YEAST), P38041
T1 chain: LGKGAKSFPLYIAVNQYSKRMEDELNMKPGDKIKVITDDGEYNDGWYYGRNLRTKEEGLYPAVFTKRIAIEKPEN

T2: Boi2 SH3 (BOI2_YEAST), P39969
T2 chain: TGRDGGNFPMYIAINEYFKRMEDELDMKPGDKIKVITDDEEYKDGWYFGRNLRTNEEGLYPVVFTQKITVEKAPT

T3: Rvs167 SH3 (RV167_YEAST), P39743
T3 chain: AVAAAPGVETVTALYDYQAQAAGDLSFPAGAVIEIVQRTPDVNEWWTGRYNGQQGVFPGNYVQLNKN

T4: Yfr024 SH3 (LSB3_YEAST), P43603
T4 chain: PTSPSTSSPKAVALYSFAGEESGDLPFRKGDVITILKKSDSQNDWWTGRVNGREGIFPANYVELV

T5: Yhr016c SH3 (YSC84_YEAST), P32793
T5 chain: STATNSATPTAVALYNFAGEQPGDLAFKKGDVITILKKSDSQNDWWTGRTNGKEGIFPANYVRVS


Columns and labels:
Test in all cases: SPOT array
[1] = target: T1, Boi1 SH3 (BOI1_YEAST), P38041
[2] = target: T2, Boi2 SH3 (BOI2_YEAST), P39969
[3] = target: T3, Rvs167 SH3 (RV167_YEAST), P39743
[4] = target: T4, Yfr024 SH3 (LSB3_YEAST), P43603
[5] = target: T5, Yhr016c SH3 (YSC84_YEAST), P32793

| Binder | normalised SPOT signal, Boehringer light units (BLU); mean over the file's lines of this peptide [1] | normalised SPOT signal, Boehringer light units (BLU); mean over the file's lines of this peptide [2] | normalised SPOT signal, Boehringer light units (BLU); mean over the file's lines of this peptide [3] | normalised SPOT signal, Boehringer light units (BLU); mean over the file's lines of this peptide [4] | normalised SPOT signal, Boehringer light units (BLU); mean over the file's lines of this peptide [5] |
| --- | --- | --- | --- | --- | --- |
| VVLPKFPDKSFVLD [YLR215C 239-252] | 94.3 | 34 | 22.6 | 533 | 168 |
| VYVPINPPKELDQR [YJL060W 164-177] | 32.4 | 17.4 | 17.1 | 298 | 132 |
| VVSPSHPFKQLQKI [YIL146C 146-159] | 59.7 | 50.3 | 55.9 | 70.5 | 173 |
| WNDPSDPTKGFQYL [YMR207C 1538-1551] | 30.3 | 47.1 | 48.9 | 1300 | 25.5 |
| VYSPIQPRRRKDSS [YLR228C 72-85] | 571 | 1180 | 580 | 13300 | 2250 |
| VTVPKLPFKLAVNK [YBR040W 181-194] | 0 | 69.6 | 50.5 | 3360 | 230 |
| WISPDTPLKFPLNE [YJL093C 636-649] | 85.4 | 227 | 168 | 5890 | 364 |
| VTQPITPVKKRRSE [YNL230C 264-277] | 442 | 90 | 56.8 | 2650 | 128 |
| YRIPDDPRKSQNKS [YKL178C 366-379] | 95.9 | 71.9 | 21.3 | 351 | 80.5 |
| YILPKNPFRVPSEM [YGR293C 125-138] | 8450 | 384 | 198 | 808 | 124 |
| WNLPWSPFKITTIM [YDR211W 95-108] | 143 | 2670 | 870 | 6480 | 1040 |
| YMQPIIPGKTESFE [YDR390C 151-164] | 62.4 | 259 | 498 | 596 | 272 |
| VVIPPVPSRYSDER [YDL117W 95-108] | 50.6 | 0 | 1860 | 4480 | 3610 |
| VTTPLKPKRLAIPI [YJR083C 47-60] | 122 | 20.4 | 17.7 | 1890 | 364 |
| YGPPTDPRKQKQAK [YDR001C 36-49] | 156 | 38.1 | 63.3 | 172 | 209 |
| YKIPVVPPRETYFA [YGR166W 507-520] | 137 | 26.2 | 385 | 3320 | 1750 |
| YPSPAQPPKSPLLN [YER114C 448-461] | 92.5 | 36.2 | 18.1 | 526 | 22.5 |
| WSYPYEPLRVLQVG [YDR415C 17-30] | 326 | 3020 | 1090 | 2320 | 802 |
| YLDPFHPKRKFIGV [YNL005C 96-109] | 178 | 58.3 | 57 | 88.7 | 34.3 |
| YQYPQTPSKVDISI [YEL040W 243-256] | 36.3 | 36.3 | 74.2 | 141 | 73.9 |
| WKPPDLPIRLRKRP [YIL156W 502-515] | 7340 | 2000 | 12900 | 47500 | 24500 |
| YDFPTVPARKFVQP [YNR006W 578-591] | 1480 | 8.3 | 254 | 804 | 258 |
